One test has as its target human CGRP receptor (human, UniProt Q16602 23-461; O60894 27-148). As to the kind of experiment: cell-based or functional assay.
In a further test the target is T1, human PAC1 receptor (human, UniProt P41586 21-468).
T1 sequence: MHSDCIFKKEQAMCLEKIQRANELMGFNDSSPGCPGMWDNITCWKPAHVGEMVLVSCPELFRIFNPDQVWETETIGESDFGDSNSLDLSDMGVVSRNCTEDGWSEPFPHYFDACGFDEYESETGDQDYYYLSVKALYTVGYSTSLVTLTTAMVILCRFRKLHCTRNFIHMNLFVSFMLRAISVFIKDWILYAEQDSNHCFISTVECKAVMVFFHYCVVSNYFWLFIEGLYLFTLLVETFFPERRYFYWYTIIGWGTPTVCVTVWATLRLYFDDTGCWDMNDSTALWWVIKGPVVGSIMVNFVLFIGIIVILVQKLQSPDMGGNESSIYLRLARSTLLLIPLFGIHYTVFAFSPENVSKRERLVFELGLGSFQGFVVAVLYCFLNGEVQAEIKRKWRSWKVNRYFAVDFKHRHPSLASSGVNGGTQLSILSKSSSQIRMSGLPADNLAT
Kind of test: cell-based or functional assay.

Chain of human CGRP receptor (Q16602 23-461 limits assumed, chain 1 of 2): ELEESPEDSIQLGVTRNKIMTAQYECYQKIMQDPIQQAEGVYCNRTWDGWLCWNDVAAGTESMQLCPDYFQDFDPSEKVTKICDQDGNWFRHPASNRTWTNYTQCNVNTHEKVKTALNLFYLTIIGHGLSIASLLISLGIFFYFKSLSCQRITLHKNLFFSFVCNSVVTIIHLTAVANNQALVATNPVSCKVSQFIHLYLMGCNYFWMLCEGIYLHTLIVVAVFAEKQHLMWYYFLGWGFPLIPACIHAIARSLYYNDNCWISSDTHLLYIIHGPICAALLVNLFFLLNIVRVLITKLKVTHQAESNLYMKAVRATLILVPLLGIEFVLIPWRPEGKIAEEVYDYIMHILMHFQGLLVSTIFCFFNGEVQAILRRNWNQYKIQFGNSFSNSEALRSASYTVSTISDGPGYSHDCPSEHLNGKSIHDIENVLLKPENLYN
Chain of human CGRP receptor (O60894 27-148 limits assumed, chain 2 of 2): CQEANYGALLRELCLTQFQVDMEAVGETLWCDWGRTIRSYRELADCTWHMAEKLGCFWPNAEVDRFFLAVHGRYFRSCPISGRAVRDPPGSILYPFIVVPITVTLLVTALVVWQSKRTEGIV

B1: iPS:328044 (bispecific antibody, human IgG1, kappa, lambda, N297G)
light 1: not shown
heavy 1: not shown
light 2: not shown
heavy 2: EVQLVESGGGLVKPGGSLRLSCAASGFTFSNAWMSWVRQAPGKELEWVGRIKSKTDGGTTDYTAPVKGRFTISRDDSKNTLYLQMNSLKAEDTAVYYCTTDRTGYSISWSSYYYYYGMDVWGQGTTVTVSSASTKGPSVFPLAPSSKSTSGGTAALGCLVKDYFPEPVTVSWNSGALTSGVHTFPAVLQSSGLYSLESVVTVPSSSLGTQTYICNVNHKPSNTKVDKKVEPKSCDKTHTCPPCPAPELLGGPSVFLFPPKPKDTLMISRTPEVTCVVVDVSHEDPEVKFNWYVDGVEVHNAKTKPCEEQYGSTYRCVSVLTVLHQDWLNGKEYKCKVSNKALPAPIEKTISKAKGQPREPQVYTLPPSRKEMTKNQVSLTCLVKGFYPSDIAVEWESNGQPENNYKTTPPVLKSDGSFFLYSKLTVDKSRWQQGNVFSCSVMHEALHNHYTQKSLSLSPGK
As to B1, the “% inhibition of human CGRPR” value in the test with human CGRP receptor worked out at 77%. The “% inhibition of human PAC1” value with human PAC1 receptor is 5%.

B2: iPS:328039 (bispecific antibody, human IgG1, kappa, lambda, N297G)
light 1: not shown
heavy 1: not shown
light 2: not shown
heavy 2: EVQLVESGGGLVKPGGSLRLSCAASGFTFGNAWMSWVRQAPGKELEWVGRIKSKTDGGTTDYAAPVKGRFTISRDDSKNTLYLQMNSLKTEDTAVYFCTTDRTGYSISWSSYYYYYGMDVWGQGTTVTVSSASTKGPSVFPLAPSSKSTSGGTAALGCLVKDYFPEPVTVSWNSGALTSGVHTFPAVLQSSGLYSLESVVTVPSSSLGTQTYICNVNHKPSNTKVDKKVEPKSCDKTHTCPPCPAPELLGGPSVFLFPPKPKDTLMISRTPEVTCVVVDVSHEDPEVKFNWYVDGVEVHNAKTKPCEEQYGSTYRCVSVLTVLHQDWLNGKEYKCKVSNKALPAPIEKTISKAKGQPREPQVYTLPPSRKEMTKNQVSLTCLVKGFYPSDIAVEWESNGQPENNYKTTPPVLKSDGSFFLYSKLTVDKSRWQQGNVFSCSVMHEALHNHYTQKSLSLSPGK
On to B2, for which the “% inhibition of human CGRPR” value in the test with human CGRP receptor was 74%. In addition, in the test with human PAC1 receptor, the “% inhibition of human PAC1” value turned out to be 9%.

B3: iPS:328048 (bispecific antibody, human IgG1, kappa, lambda, N297G)
light 1: not shown
heavy 1: not shown
light 2: QSVLTQPPSVSAAPGQKVTISCSGSSSNIGNNYVSWYQQLPGTAPKLLIYDNNKRPSGIPDRFSGSKSGTSTTLGITGLQTGDEADYYCGTWDSRLSAVVFGGGTKLTVLGQPKANPTVTLFPPSSEELQANKATLVCLISDFYPGAVTVAWKADGSPVKAGVETTKPSKQSNNKYAAKSYLSLTPEQWKSHRSYSCQVTHEGSTVEKTVAPTECS
heavy 2: QVQLVESGGGVVQPGRSLRLSCAASGFTFSSFGMHWVRQAPGKGLEWVAVISFDGSIKYSVDSVKGRFTISRDNSKNTLFLQMNSLRAEDTAVYYCARDRLNYYDSSGYYHYKYYGMAVWGQGTTVTVSSASTKGPSVFPLAPSSKSTSGGTAALGCLVKDYFPEPVTVSWNSGALTSGVHTFPAVLQSSGLYSLESVVTVPSSSLGTQTYICNVNHKPSNTKVDKKVEPKSCDKTHTCPPCPAPELLGGPSVFLFPPKPKDTLMISRTPEVTCVVVDVSHEDPEVKFNWYVDGVEVHNAKTKPCEEQYGSTYRCVSVLTVLHQDWLNGKEYKCKVSNKALPAPIEKTISKAKGQPREPQVYTLPPSRKEMTKNQVSLTCLVKGFYPSDIAVEWESNGQPENNYKTTPPVLKSDGSFFLYSKLTVDKSRWQQGNVFSCSVMHEALHNHYTQKSLSLSPGK
For the molecule B3, in the test with human CGRP receptor, the “% inhibition of human CGRPR” value is 69%. Moreover, the “% inhibition of human PAC1” value in the test with human PAC1 receptor amounted to 9%.

B4: iPS:328051 (bispecific antibody, human IgG1, kappa, lambda, N297G)
light 1: not shown
heavy 1: not shown
light 2: QSVLTQPPSVSAAPGQKVTISCSGSSSNIGNNYVSWYQQLPGTAPKLLIYDNNKRPSGIPDRFSGSKSGTSTTLGITGLQTGDEADYYCGTWDSRLSAVVFGGGTKLTVLGQPKANPTVTLFPPSSEELQANKATLVCLISDFYPGAVTVAWKADGSPVKAGVETTKPSKQSNNKYAAKSYLSLTPEQWKSHRSYSCQVTHEGSTVEKTVAPTECS
heavy 2: QVQLVESGGGVVQPGRSLRLSCAASGFTFSSFGMHWVRQAPGKGLEWVAVISFDGSIKYSVDSVKGRFTISRDNSKNTLFLQMNSLRAEDTAVYYCARDRLNYYDSSGYYHYKYYGMAVWGQGTTVTVSSASTKGPSVFPLAPSSKSTSGGTAALGCLVKDYFPEPVTVSWNSGALTSGVHTFPAVLQSSGLYSLESVVTVPSSSLGTQTYICNVNHKPSNTKVDKKVEPKSCDKTHTCPPCPAPELLGGPSVFLFPPKPKDTLMISRTPEVTCVVVDVSHEDPEVKFNWYVDGVEVHNAKTKPCEEQYGSTYRCVSVLTVLHQDWLNGKEYKCKVSNKALPAPIEKTISKAKGQPREPQVYTLPPSRKKMTKNQVSLTCLVKGFYPSDIAVEWESNGQPENNYKTTPPVLKSDGSFFLYSKLTVDKSRWQQGNVFSCSVMHEALHNHYTQKSLSLSPGK
With B4, the “% inhibition of human CGRPR” value in the test with human CGRP receptor came out at 77%. Also, the “% inhibition of human PAC1” value in the test with human PAC1 receptor worked out at 21%.

B5: iPS:326648 (bispecific antibody, human IgG2, kappa, lambda)
light 1: EIVLTQSPATLSLSPGERATLSCRASQSVGRSLHWYQQKPGQAPRLLIKYASQSLSGIPARFSGSGSGTDFTLTISSLEPEDFAVYYCHQSSRLPFTFGPGTKVDIKRTVAAPSVFIFPPSDEQLKSGTASVVCLLNNFYPREAKVQWKVDNALQSGNSQESVTEQDSKDSTYSLESTLTLSKADYEKHKVYACEVTHQGLSSPVTKSFNRGEC
heavy 1: QVQLVESGGGVVQPGRSLRLSCAASGFTFSRFAMHWVRQAPGKGLEWVAVISYDGGNKYYAESVKGRFTISRDNSKNTLYLQMNSLRAEDTALFYCARGYDVLTGYPDYWGQGTLVTVSSASTKGPSVFPLAPCSRSTSESTAALGCLVKDYFPEPVTVSWNSGALTSGVHTFPAVLQSSGLYSLKSVVTVPSSNFGTQTYTCNVDHKPSNTKVDKTVERKCCVECPPCPAPPVAGPSVFLFPPKPKDTLMISRTPEVTCVVVDVSHEDPEVQFNWYVDGVEVHNAKTKPREEQFNSTFRVVSVLTVVHQDWLNGKEYKCKVSNKGLPAPIEKTISKTKGQPREPQVYTLPPSREEMTKNQVSLTCLVDGFYPSDIAVEWESNGQPENNYDTTPPMLDSDGSFFLYSDLTVDKSRWQQGNVFSCSVMHEALHNHYTQKSLSLSPGK
light 2: not shown
heavy 2: not shown
Regarding B5, the “% inhibition of human CGRPR” value in the test with human CGRP receptor worked out at 73%. Also, in the test with human PAC1 receptor, the “% inhibition of human PAC1” value stood at 92%.

B6: iPS:328045 (bispecific antibody, human IgG1, kappa, lambda, N297G)
light 1: DIQMTQSPSSLSASVGDRITITCRASQSISRYLNWYQQKPGKAPKLLIYAASSLQSGIPSRFSGSGSGTDFTLTINSLQPEDFATYFCQQSYSPPFTFGQGTKVDIKRTVAAPSVFIFPPSDEQLKSGTASVVCLLNNFYPREAKVQWKVDNALQSGNSQESVTEQDSKDSTYSLESTLTLSKADYEKHKVYACEVTHQGLSSPVTKSFNRGEC
heavy 1: not shown
light 2: not shown
heavy 2: not shown
Take B6: the “% inhibition of human CGRPR” value in the test with human CGRP receptor turned out to be 67%. For the same molecule, the “% inhibition of human PAC1” value in the test with human PAC1 receptor worked out at 29%.

B7: iPS:328050 (bispecific antibody, human IgG1, kappa, lambda, N297G)
light 1: DIQMTQSPSSLSASVGDRITITCRASQSISRYLNWYQQKPGKAPKLLIYAASSLQSGIPSRFSGSGSGTDFTLTINSLQPEDFATYFCQQSYSPPFTFGQGTKVDIKRTVAAPSVFIFPPSDEQLKSGTASVVCLLNNFYPREAKVQWKVDNALQSGNSQESVTEQDSKDSTYSLESTLTLSKADYEKHKVYACEVTHQGLSSPVTKSFNRGEC
heavy 1: not shown
light 2: QSVLTQPPSVSAAPGQKVTISCSGSSSNIGNNYVSWYQQLPGTAPKLLIYDNNKRPSGIPDRFSGSKSGTSTTLGITGLQTGDEADYYCGTWDSRLSAVVFGGGTKLTVLGQPKANPTVTLFPPSSEELQANKATLVCLISDFYPGAVTVAWKADGSPVKAGVETTKPSKQSNNKYAAKSYLSLTPEQWKSHRSYSCQVTHEGSTVEKTVAPTECS
heavy 2: QVQLVESGGGVVQPGRSLRLSCAASGFTFSSFGMHWVRQAPGKGLEWVAVISFDGSIKYSVDSVKGRFTISRDNSKNTLFLQMNSLRAEDTAVYYCARDRLNYYDSSGYYHYKYYGMAVWGQGTTVTVSSASTKGPSVFPLAPSSKSTSGGTAALGCLVKDYFPEPVTVSWNSGALTSGVHTFPAVLQSSGLYSLESVVTVPSSSLGTQTYICNVNHKPSNTKVDKKVEPKSCDKTHTCPPCPAPELLGGPSVFLFPPKPKDTLMISRTPEVTCVVVDVSHEDPEVKFNWYVDGVEVHNAKTKPCEEQYGSTYRCVSVLTVLHQDWLNGKEYKCKVSNKALPAPIEKTISKAKGQPREPQVYTLPPSRKKMTKNQVSLTCLVKGFYPSDIAVEWESNGQPENNYKTTPPVLKSDGSFFLYSKLTVDKSRWQQGNVFSCSVMHEALHNHYTQKSLSLSPGK
Turning to B7, the “% inhibition of human CGRPR” value in the test with human CGRP receptor was determined as 80%. Besides, the “% inhibition of human PAC1” value in the test with human PAC1 receptor was 11%.

B8: iPS:328040 (bispecific antibody, human IgG1, kappa, lambda, N297G)
light 1: DIQMTQSPSSLSASVGDRITITCRASQSISRYLNWYQQKPGKAPKLLIYAASSLQSGIPSRFSGSGSGTDFTLTINSLQPEDFATYFCQQSYSPPFTFGQGTKVDIKRTVAAPSVFIFPPSDEQLKSGTASVVCLLNNFYPREAKVQWKVDNALQSGNSQESVTEQDSKDSTYSLESTLTLSKADYEKHKVYACEVTHQGLSSPVTKSFNRGEC
heavy 1: not shown
light 2: not shown
heavy 2: not shown
In the case of B8, in the test with human CGRP receptor, the “% inhibition of human CGRPR” value was 74%. Moreover, the “% inhibition of human PAC1” value in the test with human PAC1 receptor came to 70%.

B9: iPS:328047 (bispecific antibody, human IgG1, kappa, lambda, N297G)
light 1: DIQMTQSPSSLSASVGDRITITCRASQSISRYLNWYQQKPGKAPKLLIYAASSLQSGIPSRFSGSGSGTDFTLTINSLQPEDFATYFCQQSYSPPFTFGQGTKVDIKRTVAAPSVFIFPPSDEQLKSGTASVVCLLNNFYPREAKVQWKVDNALQSGNSQESVTEQDSKDSTYSLESTLTLSKADYEKHKVYACEVTHQGLSSPVTKSFNRGEC
heavy 1: not shown
light 2: QSVLTQPPSVSAAPGQKVTISCSGSSSNIGNNYVSWYQQLPGTAPKLLIYDNNKRPSGIPDRFSGSKSGTSTTLGITGLQTGDEADYYCGTWDSRLSAVVFGGGTKLTVLGQPKANPTVTLFPPSSEELQANKATLVCLISDFYPGAVTVAWKADGSPVKAGVETTKPSKQSNNKYAAKSYLSLTPEQWKSHRSYSCQVTHEGSTVEKTVAPTECS
heavy 2: QVQLVESGGGVVQPGRSLRLSCAASGFTFSSFGMHWVRQAPGKGLEWVAVISFDGSIKYSVDSVKGRFTISRDNSKNTLFLQMNSLRAEDTAVYYCARDRLNYYDSSGYYHYKYYGMAVWGQGTTVTVSSASTKGPSVFPLAPSSKSTSGGTAALGCLVKDYFPEPVTVSWNSGALTSGVHTFPAVLQSSGLYSLESVVTVPSSSLGTQTYICNVNHKPSNTKVDKKVEPKSCDKTHTCPPCPAPELLGGPSVFLFPPKPKDTLMISRTPEVTCVVVDVSHEDPEVKFNWYVDGVEVHNAKTKPCEEQYGSTYRCVSVLTVLHQDWLNGKEYKCKVSNKALPAPIEKTISKAKGQPREPQVYTLPPSRKEMTKNQVSLTCLVKGFYPSDIAVEWESNGQPENNYKTTPPVLKSDGSFFLYSKLTVDKSRWQQGNVFSCSVMHEALHNHYTQKSLSLSPGK
Consider B9, for which, in the test with human CGRP receptor, the “% inhibition of human CGRPR” value was 78%. Also, the “% inhibition of human PAC1” value with human PAC1 receptor stood at 33%.

Source of the values: patent US20170306033A1 (Amgen, published 2017).
